# Assay results reported in patent US20230192896A1 (published 2023).
# Positions count from the first letter of the chain named.
# B1: BIIB-9-592 (antibody, V domains shown)
# VH: QLQLQESGPGLVKPSETLSLTCTVSGGSISSNSYYWGWIRQPPGKGLEWIGSIYYSGSTYYNPSLKSRVTISVDTSKNQFSLKLSSVTAADTAVYYCARDSNYDSSGYALYYYGMDVWGQGTTVTVSS
# VL: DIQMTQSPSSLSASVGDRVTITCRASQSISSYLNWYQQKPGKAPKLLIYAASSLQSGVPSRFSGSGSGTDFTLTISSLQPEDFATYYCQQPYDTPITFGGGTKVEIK
# B2: BIIB-9-440 (antibody, V domains shown)
# VH: QLQLQESGPGLVKPSETLSLTCTVSGGSISSSDYYWGWIRQPPGKGLEWIGSIYYSGSTYYNPSLKSRVTISVDTSKNQFSLKLSSVTAADTAVYYCARSPRHKVRGPNWFDPWGQGTLVTVSS
# VL: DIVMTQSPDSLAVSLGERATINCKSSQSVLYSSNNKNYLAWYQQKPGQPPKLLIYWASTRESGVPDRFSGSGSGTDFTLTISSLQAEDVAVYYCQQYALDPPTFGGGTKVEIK
# B3: BIIB-9-1281 (antibody, V domains shown)
# VH: QVQLQQWGAGLLKPSETLSLTCAVYGGSFSGYYWSWIRQPPGKGLEWIGEIDHSGSTNYNPSLKSRVTISVDTSKNQFSLKLSSVTAADTAVYYCARTTRSKYYGMDVWGQGTMVTVSS
# VL: DIQMTQSPSTLSASVGDRVTITCRASQSISSWLAWYQQKPGKAPKLLIYKASSLESGVPSRFSGSGSGTDFTLTISSLQPEDFATYYCQQAISLPITFGGGTKVEIK
# B4: BIIB-9-1279 (antibody, V domains shown)
# VH: QVQLVQSGAEVKKPGASVKVSCKASGYTFTSYYMHWVRQAPGQGLEWMGIINPSGGSTSYAQKFQGRVTMTRDTSTSTVYMELSSLRSEDTAVYYCARGPTDSSGYLDMDVWGKGTTVTVSS
# VL: B3 VL with T10S, L11V, S28G, K50A, E55Q, I92S, L94F, I96P
# B5: BIIB-9-607 (antibody, V domains shown)
# VH: QLQLQESGPGLVKPSETLSLTCTVSGGSISSSSYYWGWIRQPPGKGLEWIGSISYSGSTYYNPSLKSRVTISVDTSKNQFSLKLSSVTAADTAVYYCARDRGYSYEDFDLWGRGTLVTVS
# VL: B3 VL with D70E, E81D, I92G, S93R, L94Y, I96L
# B6: BIIB-9-581 (antibody, V domains shown)
# VH: QVQLVQSGAEVKKPGASVKVSCKASGYTFTSYYMHWVRQAPGQGLEWMGIINPSGGSTSYAQKFQGRVTMTRDTSTSTVYMELSSLRSEDTAVYYCARDPLYYREGYVFDYWGQGTLVTVSS
# VL: B3 VL with T10S, W32Y, A34N, K50A, E55Q, A91S, I92D, S93L, L94F, I96F
# B7: BIIB-9-887 (antibody, V domains shown)
# VH: QVQLVQSGAEVKKPGASVKVSCKASGYTFTSYYMVWVRQAPGQGLEWMGIINPSGGSTSYAQKFQGRVTMTRDTSTSTVYMELSSLRSEDTAVYYCARDAEAHWIPGMDVWGQGTTVTVSS
# VL: B3 VL with T10S, L11V, S28G, K50A, E55Q, I92S, L94F, I96F
# B8: BIIB-9-605 (antibody, V domains shown)
# VH: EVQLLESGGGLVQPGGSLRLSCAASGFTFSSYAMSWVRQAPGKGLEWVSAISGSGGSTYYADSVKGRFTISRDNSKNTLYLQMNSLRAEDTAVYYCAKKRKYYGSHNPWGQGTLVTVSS
# VL: B3 VL with T10S, L11V, S28G, K50A, E55Q, I92D, S93V, L94F, I96F
# B9: BIIB-9-479 (antibody, V domains shown)
# VH: QVQLQESGPGLVKPSETLSLTCTVSGGSISSYYWSWIRQPPGKGLEWIGSIYYSGSTNYNPSLKSRVTISVDTSKNQFSLKLSSVTAADTAVYYCAREHYGDYPLFDIWGQGTMVTVSS
# VL: B3 VL with D70E, E81D, A91Y, I92R, S93I, P95S, I96P
# B10: BIIB-9-1264 (antibody, V domains shown)
# VH: QVQLVQSGAEVKKPGASVKVSCKASGYTFTSYYMHWVRQAPGQGLEWMGIINPSGGSTSYAQKFQGRVTMTRDTSTSTVYMELSSLRSEDTAVYYCARDGDSSVYAFDYWGQGTLVTVSS
# VL: DIQMTQSPSSLSASVGDRVTITCQASQDITNYLNWYQQKPGKAPKLLIYDASNLETGVPSRFSGSGSGTDFTFTISSLQPEDIATYYCQQVDDYPFTFGGGTKVEIK
# B11: BIIB-9-569 (antibody, V domains shown)
# VH: QVQLVQSGAEVKKPGASVKVSCKASGYTFTSYYMHWVRQAPGQGLEWMGIINPSGGSTSYAQKFQGRVTMTRDTSTSTVYMELSSLRSEDTAVYYCARDGSGYSPYSFDPWGQGTLVTVSS
# VL: B10 VL with T30S, E55A, V91A, Y94F
# B12: BIIB-9-883 (antibody, V domains shown)
# VH: QVQLVQSGAEVKKPGASVKVSCKASGYTFTSYYMHWVRQAPGQGLEWMGIINPSGGSTSYAQKFQGRVTMTRDTSTSTVYMELSSLRSEDTAVYYCARDGRLSYTWDRWGQGTLVTVSS
# VL: B10 VL with V91A, D93H, Y94F
# B13: BIIB-9-439 (antibody, V domains shown)
# VH: QVQLVQSGAEVKKPGASVKVSCKASGYTFTSYYMHWVRQAPGQGLEWMGIINPSGGSTTYAQKFQGRVTMTRDTSTSTVYMELSSLRSEDTAVYYCAREATESYYYMDVWGKGTTVTVSS
# VL: EIVMTQSPATLSLSPGERATLSCRASQSVSSYLAWYQQKPGQAPRLLIYDSSNRATGIPARFSGSGSGTDFTLTISSLEPEDFAVYYCQQRDNWPFTFGGGTKVEIK
# B14: BIIB-9-445 (antibody, V domains shown)
# VH: B12 VH with M34I, G100V, R101G, L102Q, S103D, T105W, W106F, R108L, Q111R
# VL: B13 VL with L13V, Y32N, D50S, S51A, N53T, D70E, E79Q, P80S, R91Y, W94F
# B15: BIIB-9-587 (antibody, V domains shown)
# VH: B13 VH with T59S, E99G, A100P, T101P, E102G, S103Y, Y104E
# VL: B3 VL with T10S, L11V, S28G, K50A, E55Q, I92D, L94F, I96F
# B16: BIIB-9-888 (antibody, V domains shown)
# VH: B4 VH
# VL: B13 VL with L13V, Y32N, D50G, S51A, N53T, D70E, E79Q, R91A, D92F, F96P
# B17: BIIB-9-1267 (antibody, V domains shown)
# VH: B10 VH with G100H, D101G, S102W, S103A, V104I, A106G, F107M, Y109V, L115T
# VL: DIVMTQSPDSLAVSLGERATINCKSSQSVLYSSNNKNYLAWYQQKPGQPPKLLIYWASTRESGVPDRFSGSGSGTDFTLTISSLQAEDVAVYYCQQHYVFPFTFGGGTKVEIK
# B18: BIIB-9-885 (antibody, V domains shown)
# VH: QVQLVQSGAEVKKPGASVKVSCKASGYTFTSYYMHWVRQAPGQGLEWMGIINPSGGSTSYAQKFQGRVTMTRDTSTSTVYMELSSLRSEDTAVYYCAREGPMLDYPTYSNWFDPWGQGTLVTVSS
# VL: B13 VL with M4L, S51A, N53K, D92V, N93I, F96P
# B19: BIIB-9-461 (antibody, V domains shown)
# VH: B4 VH
# VL: EIVMTQSPATLSVSPGERATLSCRASQSVSSSLAWYQQKPGQAPRLLIYGASTRATGIPARFSGSGSGTEFTLTISSLQSEDFAVYYCQQHHHWPPTFGGGTKVEIK
# B20: BIIB-9-1278 (antibody, V domains shown)
# VH: QVQLVQSGAEVKKPGASVKVSCKASGYTFTSYYMVWVRQAPGQGLEWMGIINPSGGSTSYAQKFQGRVTMTRDTSTSTVYMELSSLRSEDTAVYYCARGPGELGYYLAFDIWGQGTMVTVSS
# VL: B19 VL with S32N, H92A, H93N, W94F
# B21: BIIB-9-611 (antibody, V domains shown)
# VH: B10 VH with D99E, G100V, D101I, S103R, Y105S, A106Y, Y109L, Q112R
# VL: B19 VL with S32N, H91D, H92N, H93I, W94H, P96Y
# B22: BIIB-9-621 (antibody, V domains shown)
# VH: QLQLQESGPGLVKPSETLSLTCTVSGGSISSSSYYWGWIRQPPGKGLEWIGSIYYSGSTYYNPSLKSRVTISVDTSKNQFSLKLSSVTAADTAVYYCARDGSISGSRFDYWGQGTLVTVSS
# VL: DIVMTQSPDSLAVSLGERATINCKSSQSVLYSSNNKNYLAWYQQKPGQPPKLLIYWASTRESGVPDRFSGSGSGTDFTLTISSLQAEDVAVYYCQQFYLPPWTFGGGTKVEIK
# B23: BIIB-9-573 (antibody, V domains shown)
# VH: QLQLQESGPGLVKPSETLSLTCTVSGGSISSSSYYWGWIRQPPGKGLEWIGSIYYSGSTYYNPSLKSRVTISVDTSKNQFSLKLSSVTAADTAVYYCARESKTKGYLDLWGRGTLVTVSS
# VL: EIVLTQSPGTLSLSPGERATLSCRASQSVSSSFLAWYQQKPGQAPRLLIYGASSRATGIPDRFSGSGSGTDFTLTISRLEPEDFAVYYCQQSHSPPYTFGGGTKVEIK
# B24: BIIB-9-425 (antibody, V domains shown)
# VH: QVQLVQSGAEVKKPGASVKVSCKASGYTFTSYYMHWVRQAPGQGLEWMGIINPSGGSTSYAQKFQGRVTMTRDTSTSTVYMELSSLRSEDTAVYYCAREPTWDVAYDYWGQGTLVTVS
# VL: B23 VL with S32D, F33Y, S92Y, H93D, P95H
# B25: BIIB-9-480 (antibody, V domains shown)
# VH: QVQLQESGPGLVKPSETLSLTCAVSGYSISSGYYWGWIRQPPGKGLEWIGSSYHSGSTYYNPSLKSRVTISVDTSKNQFSLKLSSVTAADTAVYYCARDQQDYGAFDIWGQGTMVTVSS
# VL: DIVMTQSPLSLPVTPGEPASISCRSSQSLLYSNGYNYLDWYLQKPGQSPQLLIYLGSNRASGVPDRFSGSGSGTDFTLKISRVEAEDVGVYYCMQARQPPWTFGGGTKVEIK
# Target: free FIXa (activated Factor IX) (UniProt P00740 47-191; P00740 227-461)
# Test: BLI
row,Kd [nM],Binder
1,21.7,B1
2,39.9,B2
3,16.8,B3
4,40.9,B4
5,6.57,B5
6,12.9,B6
7,6.1,B7
8,8.63,B8
9,58.3,B9
10,14.9,B10
11,7.05,B11
12,17.5,B12
13,15.6,B13
14,20.2,B14
15,11.8,B15
16,65.6,B16
17,15.6,B17
18,0.804,B18
19,43.1,B19
20,66.2,B20
21,18.6,B21
22,16.7,B22
23,8.58,B23
24,5.46,B24
25,7.51,B25
